Test results taken from PMC8494430, “Development of a fluorogenic ADAMTS-7 substrate” (Journal of Enzyme Inhibition and Medicinal Chemistry, 2021).
Like-named read-outs stand apart in the source and are kept apart here.

Columns and labels:
[1] = Appearance of solution upon dilution of peptide in assay buffer (solubility); format: physicochemical; conditions: 10 mM DMSO stock diluted in assay buffer
Experimental: The cleavage sites ^193Arg↓Ala^194 and ^195Glu↓Ala^196 were chosen to design the FRET substrate ATS7FP0 (Table 1). This peptide covers residues Ala^188-Ala^198 in LTBP4S and contains a FAM/TAMRA fluorophore/quencher pair. The quencher is covalently linked to the ε amino group of an extra C-terminal lysine residue. Stock solutions were routinely prepared at 10 mM in DMSO and stored at −80 °C. […] This was most likely due to the high content in hydrophobic amino acids of this peptide, which added to the hydrophobicity of the fluorophore/quencher pair. Nevertheless, ATS7FP0 generated fluorescence upon cleavage by ADAMTS-7 (Figure 2(A)). With the aim to improve both solubility and cleavage rate by ADAMTS-7, seven additional peptides were designed using the sequence of ATS7FP0 as a starting point. The N-terminal alanine residue present in ATS7FP0 was removed to generate peptide ATS7FP7 with a reduced aliphatic index (Table 1). […] To assess the effect of a P4′ proline residue on the cleavage rate, peptide ATS7FP7 was modified to generate ATS7FP8. […] Since we also determined that ADAMTS-7 prefers arginine in P1 (Figure 1(D)), we mutated one alanine residue in the parental sequence into arginine with the aim to improve both cleavage rate and hydrophilicity, thus generating peptide ATS7FP3. […]

[2] = target: ADAMTS7-T8 (recombinant human ADAMTS-7 construct lacking the C-terminal PLAC domain) (human) (UniProt Q9UKP4); assay: enzyme inhibition assay (cleavage of a FRET peptide); ADAMTS-7 (5 nM) pre-incubated 1 h at 37 °C with TIMP-4, then ATS7FP7 (40 µM) added; TNC-B buffer (50 mM Tris-HCl pH 7.5, 150 mM NaCl, 10 mM CaCl2, 0.02% NaN3) with 0.05% Brij-35; 384 well plates; apparent Ki from the Morrison equation for tight binding inhibitors
ADAMTS7-T8 (recombinant human ADAMTS-7 construct lacking the C-terminal PLAC domain) (human), sequence (Q9UKP4 28-1686): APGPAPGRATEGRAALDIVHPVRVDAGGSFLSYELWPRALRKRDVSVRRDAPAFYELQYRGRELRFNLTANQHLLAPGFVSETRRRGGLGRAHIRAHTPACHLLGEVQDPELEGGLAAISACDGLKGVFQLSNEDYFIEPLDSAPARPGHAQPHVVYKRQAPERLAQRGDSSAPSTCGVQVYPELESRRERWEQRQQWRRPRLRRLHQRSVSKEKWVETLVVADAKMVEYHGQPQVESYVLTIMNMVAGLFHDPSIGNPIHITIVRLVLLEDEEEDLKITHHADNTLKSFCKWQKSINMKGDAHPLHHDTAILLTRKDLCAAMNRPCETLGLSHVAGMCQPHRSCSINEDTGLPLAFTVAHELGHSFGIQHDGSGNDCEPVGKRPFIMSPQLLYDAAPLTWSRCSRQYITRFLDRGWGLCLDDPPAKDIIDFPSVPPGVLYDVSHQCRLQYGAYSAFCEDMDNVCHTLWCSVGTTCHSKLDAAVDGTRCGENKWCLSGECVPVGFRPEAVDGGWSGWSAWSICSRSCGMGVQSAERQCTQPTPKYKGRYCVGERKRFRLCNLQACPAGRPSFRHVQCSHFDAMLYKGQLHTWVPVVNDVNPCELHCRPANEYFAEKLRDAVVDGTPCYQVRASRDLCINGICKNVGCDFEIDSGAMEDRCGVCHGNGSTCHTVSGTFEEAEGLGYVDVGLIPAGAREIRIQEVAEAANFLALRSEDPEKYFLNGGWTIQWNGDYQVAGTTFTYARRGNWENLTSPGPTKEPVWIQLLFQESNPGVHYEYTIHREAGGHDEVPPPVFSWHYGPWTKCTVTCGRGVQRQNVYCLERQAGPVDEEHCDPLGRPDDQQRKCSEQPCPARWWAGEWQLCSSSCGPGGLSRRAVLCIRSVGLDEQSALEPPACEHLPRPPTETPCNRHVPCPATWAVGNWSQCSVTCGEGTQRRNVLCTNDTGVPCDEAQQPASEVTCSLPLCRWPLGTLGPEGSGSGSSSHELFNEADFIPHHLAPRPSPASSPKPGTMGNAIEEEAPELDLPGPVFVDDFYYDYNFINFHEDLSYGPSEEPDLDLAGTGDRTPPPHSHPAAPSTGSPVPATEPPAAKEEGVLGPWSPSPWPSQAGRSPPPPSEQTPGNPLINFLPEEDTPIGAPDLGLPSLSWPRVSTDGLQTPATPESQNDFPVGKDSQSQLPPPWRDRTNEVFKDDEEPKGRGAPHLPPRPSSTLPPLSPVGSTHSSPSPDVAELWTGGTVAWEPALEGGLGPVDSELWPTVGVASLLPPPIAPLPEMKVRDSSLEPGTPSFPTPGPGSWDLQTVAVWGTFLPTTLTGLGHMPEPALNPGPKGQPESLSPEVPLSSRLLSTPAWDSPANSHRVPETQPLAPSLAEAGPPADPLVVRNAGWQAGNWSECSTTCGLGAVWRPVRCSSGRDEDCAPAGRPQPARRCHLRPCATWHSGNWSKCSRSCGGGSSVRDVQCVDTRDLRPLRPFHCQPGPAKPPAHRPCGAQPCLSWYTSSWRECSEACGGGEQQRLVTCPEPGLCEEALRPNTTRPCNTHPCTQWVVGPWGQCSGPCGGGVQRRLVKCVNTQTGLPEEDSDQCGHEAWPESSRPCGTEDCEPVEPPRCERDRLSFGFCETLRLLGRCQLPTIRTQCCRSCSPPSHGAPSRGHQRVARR

[3] = target: T1, ADAMTS-7 (Homo sapiens, UniProt Q9UKP4); conditions: read-out: Ki app for inhibition of cleavage of LTBP4; cited from earlier work
T1 construct: the recombinant construct ADAMTS7-T8, which lacks the C-terminal PLAC domain; made in house
T1 sequence (Q9UKP4 237-1631 limits assumed): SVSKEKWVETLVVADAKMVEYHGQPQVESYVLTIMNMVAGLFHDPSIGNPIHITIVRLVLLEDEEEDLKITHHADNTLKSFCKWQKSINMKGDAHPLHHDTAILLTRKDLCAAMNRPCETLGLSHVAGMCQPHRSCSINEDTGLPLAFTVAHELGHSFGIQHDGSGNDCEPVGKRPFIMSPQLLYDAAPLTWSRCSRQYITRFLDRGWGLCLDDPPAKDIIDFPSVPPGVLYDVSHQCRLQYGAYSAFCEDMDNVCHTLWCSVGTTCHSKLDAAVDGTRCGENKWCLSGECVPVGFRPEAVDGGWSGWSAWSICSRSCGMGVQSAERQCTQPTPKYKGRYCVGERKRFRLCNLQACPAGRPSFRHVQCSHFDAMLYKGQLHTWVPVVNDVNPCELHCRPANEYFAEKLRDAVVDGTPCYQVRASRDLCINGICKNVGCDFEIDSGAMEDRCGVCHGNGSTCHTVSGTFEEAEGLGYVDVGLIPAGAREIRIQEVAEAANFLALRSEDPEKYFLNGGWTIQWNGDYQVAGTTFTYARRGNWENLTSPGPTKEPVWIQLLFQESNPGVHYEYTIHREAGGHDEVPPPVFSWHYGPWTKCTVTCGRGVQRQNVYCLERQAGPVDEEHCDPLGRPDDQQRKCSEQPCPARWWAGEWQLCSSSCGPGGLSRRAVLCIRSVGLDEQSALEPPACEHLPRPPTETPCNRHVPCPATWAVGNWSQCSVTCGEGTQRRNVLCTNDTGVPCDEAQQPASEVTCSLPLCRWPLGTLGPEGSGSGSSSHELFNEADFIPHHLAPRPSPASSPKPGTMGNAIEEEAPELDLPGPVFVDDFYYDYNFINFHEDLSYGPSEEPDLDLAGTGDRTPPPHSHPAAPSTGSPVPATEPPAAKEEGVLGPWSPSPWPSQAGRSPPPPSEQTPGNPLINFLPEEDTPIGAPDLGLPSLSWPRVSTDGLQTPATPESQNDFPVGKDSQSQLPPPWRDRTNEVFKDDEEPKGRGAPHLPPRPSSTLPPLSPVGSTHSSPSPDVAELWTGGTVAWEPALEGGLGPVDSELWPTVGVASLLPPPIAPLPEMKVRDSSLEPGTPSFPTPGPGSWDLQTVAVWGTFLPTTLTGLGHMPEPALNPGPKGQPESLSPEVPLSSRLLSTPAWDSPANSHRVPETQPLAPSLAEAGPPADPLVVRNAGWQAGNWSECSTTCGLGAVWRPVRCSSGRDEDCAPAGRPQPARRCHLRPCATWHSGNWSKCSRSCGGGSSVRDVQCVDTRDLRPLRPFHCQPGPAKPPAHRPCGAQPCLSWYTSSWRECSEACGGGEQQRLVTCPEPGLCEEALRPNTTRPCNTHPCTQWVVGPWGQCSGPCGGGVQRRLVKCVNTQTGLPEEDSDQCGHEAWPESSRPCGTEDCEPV

[4] = target: ADAMTS7-T8 (recombinant human ADAMTS-7 construct lacking the C-terminal PLAC domain) (human) (UniProt Q9UKP4)
[5] = target: T1, ADAMTS-7; assay: Inhibition of ADAMTS-7 cleavage of FRET substrate ATS7FP7; format: biochemical
Experimental: All enzyme assays were conducted in TNC-B buffer (50 mM Tris- HCl, pH 7.5, 150 mM NaCl, 10 mM CaCl2, and 0.02% NaN3) at 37 °C in 384 well plates (Cat. No: 784900, Greiner Bio-One, Austria). To avoid the formation of inhibitor or peptide aggregates, the detergent Brij-35 (0.05%) was added to TNC-B[13]. For inhibition studies, stock solutions of chemical compounds were prepared in dimethyl sulfoxide (DMSO) (10 mM). […] Blank samples were prepared using buffer only and the rate of cleavage for blank reactions was subtracted from the rates measured in the presence of enzyme. Upon addition of the indicated ADAMTS-7 FRET substrates (40 µM), the fluorescence was measured immediately using a FLUOstar Omega microplate reader (BMG Labtech, Germany) with an excitation filter wavelength of 485 nm and an emission filter wavelength of 520 nm.

Molecule: Ala-Glu-Ala-Ala-Ala-Arg↓Ala-Glu↓Ala-Ala-Ala-Lys [ATS7FP0]
- appearance of solution upon dilution in the assay buffer (solubility) [1]: non-homogenous

B1: Recombinant human tissue inhibitor of metalloproteinase (TIMP)-4 (natural protein)
chain: CSCAPAHPQQHICHSALVIRAKISSEKVVPASADPADTEKMLRYEIKQIKMFKGFEKVKDVQYIYTPFDSSLCGVKLEANSQKQYLLTGQVLSDGKVFIHLCNYIEPWEDLSLVQRESLNHHYHLNCGCQITTCYTVPCTISAPNECLWTDWLLERKLYGYQAQHYVCMKHVDGTCSWYRGHLPLRKEFVDIVQP
- Ki [2]: 3.2 nM
- Ki [3]: 13 nM
- IC50 of inhibition of ADAMTS-7 cleavage of the FRET peptide substrate ATS7FP7 [4]: 18 nM
- Ki ([5]; 5 nM ADAMTS-7, Morrison equation for tight binding inhibitors, read-out: Ki app (ATS7FP7 substrate)): 3.2 ± 1 nM
- IC50 ([5]; ATS7FP7 40 μM, 1 h preincubation, 37 °C): 18 ± 6 nM
